According to the supplement of paper PMC10065799, “High-throughput profiling of sequence recognition by tyrosine kinases and SH2 domains using bacterial peptide display” (eLife, 2023):

Legend:
SHP2-C SH2 = assay: SH2 binding enrichment of the phosphorylated peptide, bacterial display (enrichment ratio); higher = better substrate or ligand; peptides without Tyr show the background
Grb2 SH2 = Grb2 SH2 (UniProt P62993); assay: as above
c-Src SH2 = assay: as above
FGFR3 = FGFR3 (UniProt P22607); assay: phosphorylation enrichment, bacterial display (enrichment ratio); higher = better substrate or ligand; peptides without Tyr show the background
Fyn = Fyn (UniProt P06241); assay: as above
Fer (mouse) = assay: as above
c-Abl (mouse) = assay: as above
EPHB1 = EPHB1 (UniProt P54762); assay: as above
AncSZ = assay: as above
Fes = Fes (UniProt P07332); assay: as above
Hck = Hck (UniProt P08631); assay: as above
Jak2 = Jak2 (UniProt O60674); assay: as above
FGFR1 = FGFR1 (UniProt P11362); assay: as above
EPHB2 = EPHB2 (UniProt P29323); assay: as above
c-Src = assay: as above
MERTK = MERTK (UniProt Q12866); assay: as above
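For SH2 binding enrichment of the phosphorylated peptide, bacterial display in this document: peptide library displayed on the E. coli surface as eCPX fusions, selected cells deep-sequenced, score is each peptide's frequency after selection divided by its frequency in the input.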
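For phosphorylation enrichment, bacterial display in this document: 11-residue human phosphosite peptides and single-mutation variants displayed on the E. coli surface, counted by deep sequencing, each peptide's frequency after selection divided by its frequency in the unselected input library; frequency after pTyr selection over input frequency; kinase dosed for 20-30% of maximal phosphorylation in three min.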

Fyn, sequence (P06241 whole entry, looked up): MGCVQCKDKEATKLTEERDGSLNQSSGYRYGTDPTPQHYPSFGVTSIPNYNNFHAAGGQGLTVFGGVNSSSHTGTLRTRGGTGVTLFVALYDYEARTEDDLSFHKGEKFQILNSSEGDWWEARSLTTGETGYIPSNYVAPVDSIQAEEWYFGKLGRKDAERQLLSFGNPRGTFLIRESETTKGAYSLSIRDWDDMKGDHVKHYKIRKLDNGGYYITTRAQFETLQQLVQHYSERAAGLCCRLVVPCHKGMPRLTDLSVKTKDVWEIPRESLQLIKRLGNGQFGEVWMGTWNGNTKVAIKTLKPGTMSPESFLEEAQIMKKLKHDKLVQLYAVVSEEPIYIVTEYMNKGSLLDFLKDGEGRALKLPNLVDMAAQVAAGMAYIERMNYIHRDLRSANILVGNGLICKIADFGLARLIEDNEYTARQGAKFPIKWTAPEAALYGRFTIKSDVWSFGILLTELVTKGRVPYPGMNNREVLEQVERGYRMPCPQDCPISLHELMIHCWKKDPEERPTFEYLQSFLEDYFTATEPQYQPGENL
Fes, sequence (P07332 whole entry, looked up): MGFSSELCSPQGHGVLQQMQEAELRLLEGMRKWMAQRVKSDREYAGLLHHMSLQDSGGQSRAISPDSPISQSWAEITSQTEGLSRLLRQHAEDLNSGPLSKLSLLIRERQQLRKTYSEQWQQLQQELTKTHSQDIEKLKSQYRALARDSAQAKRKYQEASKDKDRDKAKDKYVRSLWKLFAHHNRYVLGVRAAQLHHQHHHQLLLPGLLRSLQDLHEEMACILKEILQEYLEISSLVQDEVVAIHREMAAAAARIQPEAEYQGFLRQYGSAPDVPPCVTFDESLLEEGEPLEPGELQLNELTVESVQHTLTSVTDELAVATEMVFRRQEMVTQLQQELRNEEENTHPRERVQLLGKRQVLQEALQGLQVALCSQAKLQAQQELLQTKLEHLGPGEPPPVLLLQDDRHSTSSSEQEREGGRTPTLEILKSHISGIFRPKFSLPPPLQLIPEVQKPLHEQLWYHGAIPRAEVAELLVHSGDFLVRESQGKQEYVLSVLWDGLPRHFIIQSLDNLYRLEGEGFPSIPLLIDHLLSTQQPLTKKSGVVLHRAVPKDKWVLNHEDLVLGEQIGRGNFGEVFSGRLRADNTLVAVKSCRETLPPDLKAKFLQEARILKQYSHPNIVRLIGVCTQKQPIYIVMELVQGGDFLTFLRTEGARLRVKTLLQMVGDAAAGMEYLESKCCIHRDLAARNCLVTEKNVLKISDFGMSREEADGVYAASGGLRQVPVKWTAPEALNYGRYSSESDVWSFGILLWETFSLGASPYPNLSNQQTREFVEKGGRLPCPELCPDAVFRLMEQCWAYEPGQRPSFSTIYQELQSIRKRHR
FGFR3, sequence (P22607 whole entry, looked up): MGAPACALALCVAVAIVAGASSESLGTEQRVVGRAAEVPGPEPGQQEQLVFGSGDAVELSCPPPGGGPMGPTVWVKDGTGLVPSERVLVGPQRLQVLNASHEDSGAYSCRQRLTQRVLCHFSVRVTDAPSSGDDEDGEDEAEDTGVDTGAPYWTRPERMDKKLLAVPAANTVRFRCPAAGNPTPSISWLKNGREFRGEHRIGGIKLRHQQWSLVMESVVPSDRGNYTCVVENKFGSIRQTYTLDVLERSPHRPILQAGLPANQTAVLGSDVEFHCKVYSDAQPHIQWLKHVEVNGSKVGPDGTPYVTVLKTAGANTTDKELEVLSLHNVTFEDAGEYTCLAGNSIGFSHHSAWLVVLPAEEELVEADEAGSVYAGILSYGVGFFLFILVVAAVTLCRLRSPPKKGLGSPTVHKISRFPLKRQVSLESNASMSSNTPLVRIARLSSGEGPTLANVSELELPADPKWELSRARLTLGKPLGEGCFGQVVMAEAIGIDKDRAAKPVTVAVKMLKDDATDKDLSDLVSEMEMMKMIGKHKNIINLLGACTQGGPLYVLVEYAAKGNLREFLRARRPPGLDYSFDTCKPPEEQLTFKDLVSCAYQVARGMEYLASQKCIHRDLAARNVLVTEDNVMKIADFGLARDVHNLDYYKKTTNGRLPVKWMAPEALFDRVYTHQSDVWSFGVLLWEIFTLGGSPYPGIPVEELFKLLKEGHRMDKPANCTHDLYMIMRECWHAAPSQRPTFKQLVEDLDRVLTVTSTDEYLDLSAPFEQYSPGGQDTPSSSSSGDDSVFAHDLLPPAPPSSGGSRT
Jak2, sequence (O60674 whole entry, looked up): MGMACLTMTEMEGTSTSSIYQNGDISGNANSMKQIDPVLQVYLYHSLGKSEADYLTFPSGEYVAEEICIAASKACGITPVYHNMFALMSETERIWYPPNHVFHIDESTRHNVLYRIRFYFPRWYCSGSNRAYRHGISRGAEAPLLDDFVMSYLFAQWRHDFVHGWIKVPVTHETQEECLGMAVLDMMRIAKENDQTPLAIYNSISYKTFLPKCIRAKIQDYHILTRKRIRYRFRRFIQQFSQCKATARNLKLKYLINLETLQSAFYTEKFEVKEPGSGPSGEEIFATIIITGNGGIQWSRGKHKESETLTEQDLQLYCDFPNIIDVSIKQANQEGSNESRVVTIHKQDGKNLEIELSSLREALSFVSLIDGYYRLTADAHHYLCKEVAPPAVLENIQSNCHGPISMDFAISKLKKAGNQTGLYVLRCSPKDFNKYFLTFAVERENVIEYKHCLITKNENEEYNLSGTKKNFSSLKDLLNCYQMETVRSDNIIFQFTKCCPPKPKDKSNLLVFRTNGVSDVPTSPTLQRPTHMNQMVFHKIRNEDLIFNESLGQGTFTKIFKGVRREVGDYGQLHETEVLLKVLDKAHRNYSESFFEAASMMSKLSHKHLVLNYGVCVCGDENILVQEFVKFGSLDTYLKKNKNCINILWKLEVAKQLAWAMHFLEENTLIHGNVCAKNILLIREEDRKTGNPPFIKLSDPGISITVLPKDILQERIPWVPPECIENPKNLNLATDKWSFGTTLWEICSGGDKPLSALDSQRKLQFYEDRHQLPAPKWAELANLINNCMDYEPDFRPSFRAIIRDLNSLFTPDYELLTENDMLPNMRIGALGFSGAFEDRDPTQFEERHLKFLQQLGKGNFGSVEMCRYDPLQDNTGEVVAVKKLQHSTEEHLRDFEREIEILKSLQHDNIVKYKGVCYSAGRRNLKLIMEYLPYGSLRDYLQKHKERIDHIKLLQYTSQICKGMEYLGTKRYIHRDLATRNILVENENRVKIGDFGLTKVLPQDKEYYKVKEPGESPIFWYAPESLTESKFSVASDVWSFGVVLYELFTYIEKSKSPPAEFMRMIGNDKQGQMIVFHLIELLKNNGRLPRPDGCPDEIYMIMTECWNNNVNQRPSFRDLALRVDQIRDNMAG
FGFR1, sequence (P11362 whole entry, looked up): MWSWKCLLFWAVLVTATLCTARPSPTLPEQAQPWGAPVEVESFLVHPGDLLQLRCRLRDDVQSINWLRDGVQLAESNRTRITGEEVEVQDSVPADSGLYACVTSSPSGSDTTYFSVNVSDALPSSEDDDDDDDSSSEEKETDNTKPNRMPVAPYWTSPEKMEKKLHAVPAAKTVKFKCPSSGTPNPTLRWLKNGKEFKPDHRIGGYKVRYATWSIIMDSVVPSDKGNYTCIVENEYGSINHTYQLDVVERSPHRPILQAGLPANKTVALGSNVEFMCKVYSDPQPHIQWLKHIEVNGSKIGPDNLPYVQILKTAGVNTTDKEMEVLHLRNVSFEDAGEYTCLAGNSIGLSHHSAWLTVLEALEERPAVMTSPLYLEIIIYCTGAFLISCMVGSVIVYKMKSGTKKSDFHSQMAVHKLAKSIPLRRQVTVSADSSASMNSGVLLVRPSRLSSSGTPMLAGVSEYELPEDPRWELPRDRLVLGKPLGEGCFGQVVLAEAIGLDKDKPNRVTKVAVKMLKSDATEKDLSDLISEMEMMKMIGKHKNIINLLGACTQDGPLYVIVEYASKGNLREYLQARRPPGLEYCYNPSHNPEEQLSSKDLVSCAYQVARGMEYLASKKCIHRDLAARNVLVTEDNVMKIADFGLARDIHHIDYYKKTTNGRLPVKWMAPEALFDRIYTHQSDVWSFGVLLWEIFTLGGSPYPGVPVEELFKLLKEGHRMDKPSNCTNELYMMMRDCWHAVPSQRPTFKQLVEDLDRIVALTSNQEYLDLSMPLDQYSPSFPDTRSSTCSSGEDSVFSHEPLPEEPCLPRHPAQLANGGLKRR
Hck, sequence (P08631 whole entry, looked up): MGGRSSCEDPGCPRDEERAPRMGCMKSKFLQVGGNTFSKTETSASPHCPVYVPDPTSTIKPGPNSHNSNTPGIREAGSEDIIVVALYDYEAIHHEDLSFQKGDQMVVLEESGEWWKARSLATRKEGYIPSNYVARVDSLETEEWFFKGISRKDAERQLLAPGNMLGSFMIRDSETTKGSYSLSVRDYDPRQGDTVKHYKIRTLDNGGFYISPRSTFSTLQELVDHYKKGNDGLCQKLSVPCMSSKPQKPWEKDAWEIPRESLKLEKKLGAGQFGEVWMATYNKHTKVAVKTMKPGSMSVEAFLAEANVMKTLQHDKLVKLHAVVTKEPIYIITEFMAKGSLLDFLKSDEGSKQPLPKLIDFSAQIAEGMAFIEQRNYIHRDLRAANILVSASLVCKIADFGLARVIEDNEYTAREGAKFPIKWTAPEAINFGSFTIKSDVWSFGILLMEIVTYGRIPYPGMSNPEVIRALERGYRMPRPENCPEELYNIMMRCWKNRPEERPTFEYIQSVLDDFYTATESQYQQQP

Row | SH2 binding enrichment (SHP2-C SH2) | SH2 binding enrichment (Grb2 SH2) | SH2 binding enrichment (c-Src SH2) | Sequence | phosphorylation enrichment (FGFR3) | phosphorylation enrichment (Fyn) | phosphorylation enrichment (Fer (mouse)) | phosphorylation enrichment (c-Abl (mouse)) | phosphorylation enrichment (EPHB1) | phosphorylation enrichment (AncSZ) | phosphorylation enrichment (Fes) | phosphorylation enrichment (Hck) | phosphorylation enrichment (Jak2) | phosphorylation enrichment (FGFR1) | phosphorylation enrichment (EPHB2) | phosphorylation enrichment (c-Src) | phosphorylation enrichment (MERTK)
1 | 0.275 | 0.488 | 0.254 | RIGRKYKKVRF [F8_Y442] | 0.364 | 0.36 | 0.298 | 0.298 | 0.338 | 0.47 | 0.341 | 0.356 | 0.432 | 0.352 | 0.511 | 0.385 | 0.351
2 | 0.495 | 0.896 | 0.43 | KVGNEYITKGQ [MYH7_Y410_V411I] | 0.443 | 0.376 | 0.315 | 0.564 | 0.358 | 0.593 | 0.682 | 0.399 | 0.561 | 0.444 | 0.414 | 0.403 | 0.356
3 | 1.26 | 18.9 | 3.16 | RGNMFYENSFA [EGFR_Y113_YF] | 0.744 | 0.997 | 2.57 | 0.533 | 0.483 | 1.21 | 0.836 | 0.479 | 1.01 | 0.785 | 0.663 | 0.922 | 0.727
